The record followed here is patent US20100247590A1, “Peptide-Based Systems For Delivery Of Cosmetic Agents” (JOHNSON & JOHNSON, priority 2009, published 2010).

The target of the assay is streptavidin (coated on iron oxide particles or on fluorescently-labeled polystyrene particles), P22629. Description: cell-based or functional assay.
Sequence of streptavidin (coated on iron oxide particles or on fluorescently-labeled polystyrene particles), P22629 (P22629 37-163 limits assumed): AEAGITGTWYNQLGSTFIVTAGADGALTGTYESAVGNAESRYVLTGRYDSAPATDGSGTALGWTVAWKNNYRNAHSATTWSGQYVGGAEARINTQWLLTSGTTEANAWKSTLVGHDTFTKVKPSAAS

B1: peptide HC260 (peptide)
peptide: MASGSDPSAQSQLPDKHSGLHERAPQRYGPEPEPEPEPIPEPPKEAPVVIEKPKPKPKPKPKPPAHDHKNQKETHQRHAAGSGGGGSPMLSENWLTNHPQNGGAGGAGMLSENWLTNHPQNGK
modifications: not checked
B1 returned a Color scale (0-5); sequential coloring of hair with streptavidin-coated iron oxide beads (color scale 0-5) of 2.
